PMC2761383, “Structural and functional characteristics of xenavidin, the first frog avidin from Xenopus tropicalis” (BMC Structural Biology, 2009)

Legend:
[1] = biological target: xenavidin (Xenopus tropicalis); assay: crystal structure; sitting-drop vapour diffusion at 22°C, with and without D-biotin; space group R32, dimer in the asymmetric unit; 1.7 Å
[2] = biological target: xenavidin (Xenopus tropicalis); assay: SEC; Superdex 200 10/300 GL, 50 mM sodium phosphate pH 7.0, 650 mM NaCl; samples with and without an excess of biotin
[3] = biological target: xenavidin, acetylated in vitro (Xenopus tropicalis); assay: SDS-PAGE thermostability assay; acetylated protein saturated with biotin, thermal treatment for 20 min in the presence of SDS and 2-mercaptoethanol, SDS-PAGE with Coomassie staining

| stoichiometry N [1] | stoichiometry N [2] | stoichiometry N [3] | Substance |
| --- | --- | --- | --- |
| 4 | 4 | – | xenavidin (natural protein) |
| – | – | 4 | xenavidin, acetylated in vitro (natural protein) |
